The series is described as follows: RP-HPLC of hirudin in water (FIG. 1). Type of series: physicochemical. On the procedure:
RP-HPLC method: A LiChroCART 125-4 column is used (Merck LiChrospher 100 RP-18 5 μm). Solvent A is 0.5% ammoniumacetate in acetonitrile/water (10:90), (v:v); solvent B is 0.5% ammoniumacetate in acetonitrile/water (25:75). The elution is performed at 45° C. using a flow rate of 0.5 ml/min. The binary elution is a linear gradient starting at time zero with 23% solvent B and reaching 46% solvent B after 24 minutes. After 2 min at 70% solvent B the column is equilibrated for 7 min at 23% solvent B.
A typical chromatogram of recombinant hirudin HV1 (CGP 39393) in water using the RP-HPLC (1 mg/ml hirudin) method is shown in FIG. 1.
In FIG. 1 the relative area of the main peak is 95.15%. […] The changes which occur can be accelerated by using temperature stress experiments i.e. by storage at elevated temperatures.

Take hirudin: under “in water, 1 mg/ml hirudin, typical chromatogram FIG. 1, no storage stress”, the “relative area of the main peak” value was determined as 95.15%. In addition, the “stability on storage in water” value (storage in water at room temperature) is reported as “increase of by products with time”.

Source of the values: patent publication US6436901B1, “Pharmaceutical compositions” (UCP Gen-Pharma AG, priority 1994, dated 2002).
